The record followed here is patent US20210380679A1 (INHIBRX BIOSCIENCES, published 2021).

Assay [1] has as its target T1, human DLL3 (Delta-like ligand 3) (human, UniProt Q9NYJ7 27-618).
T1 construct: endogenous on SHP-77 cells; also called cell-surface DLL3
T1 sequence: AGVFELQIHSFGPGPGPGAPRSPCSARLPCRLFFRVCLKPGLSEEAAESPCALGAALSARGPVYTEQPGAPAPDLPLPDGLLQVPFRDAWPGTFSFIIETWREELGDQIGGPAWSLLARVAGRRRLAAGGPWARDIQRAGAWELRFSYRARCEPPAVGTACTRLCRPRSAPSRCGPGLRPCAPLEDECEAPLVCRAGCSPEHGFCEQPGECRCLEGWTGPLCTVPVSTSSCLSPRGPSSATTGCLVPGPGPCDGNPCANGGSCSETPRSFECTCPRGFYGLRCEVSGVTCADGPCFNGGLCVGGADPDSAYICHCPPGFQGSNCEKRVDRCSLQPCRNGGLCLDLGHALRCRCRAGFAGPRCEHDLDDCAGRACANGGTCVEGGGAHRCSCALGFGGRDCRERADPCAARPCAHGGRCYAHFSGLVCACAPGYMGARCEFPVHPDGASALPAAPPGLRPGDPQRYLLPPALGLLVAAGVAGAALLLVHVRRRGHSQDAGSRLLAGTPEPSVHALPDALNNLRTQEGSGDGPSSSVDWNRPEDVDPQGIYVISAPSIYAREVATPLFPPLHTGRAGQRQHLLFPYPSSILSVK
Description: flow cytometry, SHP-77 cells. As to the method:
(§1) Binding of exemplary DLL3-targeting constrained CD3 engaging constructs of the disclosure, referred to herein as cx4720, cx3715, cx4422, cx3708, cx4052, cx3985, cx4059, cx4087, cx4088, cx4895, cx3991, cx3711, cx4887, cx4896, cx4899, cx4406, cx3707, cx3710, cx4888 and cx4890, to CD3 on the surface of primary T cells was assessed via flow cytometry (SONY SA3800 spectral analyzer) using T-cell that were negatively enriched from PBMCs isolated from healthy human donor leukopaks. Representative DLL3-targeting constrained CD3 engaging constructs were assessed for binding to T cells and DLL3 expressing cells (SHP-77). Bound cx4720, cx3715, cx4422, cx3708, cx4052, cx3985, cx4059, cx4087, cx4088, cx4895, cx3991, cx3711, cx4887, cx4896, cx4899, cx4406, cx3707, cx3710, cx4888 and cx4890 was detected with fluorophore-conjugated secondary antibodies specific for the human Fc and binding was measured by flow cytometry. Cells incubated with secondary antibody only served as negative controls.
(§2) Table E4 summarizes the affinity of exemplary molecules for DLL3 or CD3, as determined from flow cytometry, in these studies.

Assay [2] has as its target T2, CD3 on the surface of T cells (human, UniProt P07766 23-207).
T2 construct: whole, on cells; multi-chain complex; also called CD3 epsilon
Put plainly: flow cytometry, primary human T cells. As to the method: as §1, §2

Assay [3] has as its target T2, CD3 on the surface of T cells. Description: flow cytometry, construct titrated on isolated primary T cells, fluorophore-conjugated anti-human IgG Fc secondary. The method, then:
(§3) Binding of exemplary multispecific polypeptide constructs of the disclosure containing an antigen-binding domain directed against DLL3 to CD3 on the surface of primary T cells and to DLL3 expressing cells (SHP-77) was assessed by flow cytometry. […] These binding assays were conducted by flow cytometry, wherein bound constructs were detected using a fluorophore-conjugated anti-human IgG Fc secondary antibody.

Assay [4] addresses T1, human DLL3 (Delta-like ligand 3). Description: flow cytometry, construct titrated on SHP-77 cells (DLL3 positive), fluorophore-conjugated anti-human IgG Fc secondary. The method, then:
as §3

Where only a bound is given, the exact number is not on record here.

T2 sequence (P07766 23-207): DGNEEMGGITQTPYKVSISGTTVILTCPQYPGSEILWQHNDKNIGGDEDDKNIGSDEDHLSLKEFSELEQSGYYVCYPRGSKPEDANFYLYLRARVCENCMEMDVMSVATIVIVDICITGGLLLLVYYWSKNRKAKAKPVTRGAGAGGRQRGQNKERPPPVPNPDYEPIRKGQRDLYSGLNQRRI

B1: cx4890 (bispecific antibody)
chain 1: EVQLVQSGGGLVQAGGSLRLSCAASGSILSINAMGWYRQPPGKQREMVAGFTGDGNTIYADSVKGRFTISRDNAKNTVYLQMNSLKPEDTAVYYCAADVQLFSRDYEFYWGQGTQVTVKPDKTHTCPPCPAPGGPSVFLFPPKPKDTLMISRTPEVTCVVVDVSHEDPEVKFNWYVDGVEVHNAKTKPREEQYNSTYRVVSVLTVLHQDWLNGKEYKCKVSNKALPAPIEKTISKAKGQPREPQVYTLPPCRDELTKNQVSLWCLVKGFYPSDIAVEWESNGQPENNYKTTPPVLDSDGSFFLYSKLTVDKSRWQQGNVFSCSVMHEALHNHYTQKSLSLSPTGGGGGSGGGGGSGGGGGSEVQLVESGGGLVQPGGSLRLSCAASGFTFNTYAMNWVRQAPGKCLEWVARIRSKYNNYATYYADSVKGRFTISRDDAKNTLYLQMSSLRAEDTAVYYCVRHGNFGNSYVSWFAYWGQGTLVTVKPEVQLQESGGGLVQAGGSLRLSCGPSEIITSDKSVGWWRQAPGKQRNLVAGISNVGSTNYAQSVKGRFTISRDNAKNTLFLQMNSLKPEDTAVYYCYARDFENEYWGRGTQVTVKP
chain 2: DKTHTCPPCPAPGGPSVFLFPPKPKDTLMISRTPEVTCVVVDVSHEDPEVKFNWYVDGVEVHNAKTKPREEQYNSTYRVVSVLTVLHQDWLNGKEYKCKVSNKALPAPIEKTISKAKGQPREPQVCTLPPSRDELTKNQVSLSCAVKGFYPSDIAVEWESNGQPENNYKTTPPVLDSDGSFFLVSKLTVDKSRWQQGNVFSCSVMHEALHNRYTQKSLSLSPTGGGGGSGGGGGSGGGGGSQAVVTQEPSLTVSPGGTVTLTCGSSTGAVTTSNYANWVQQKPGQAFRGLIGGTNKRAPGVPARFSGSLLGGKAALTISGAQPEDEADYYCALWYSNHWVFGCGTKLEIK
Take B1: the Kd in assay [1] was 0.062 nM; in assay [2] it was above 200 nM.

B2: cx4899 (bispecific antibody)
chain 1: EVQLVESGGGEVQPGGSLRLSCGPSEIITSDKSVGWWRQAPGKQRNLVAGISNVGSTNYAQSVKGRFTISRDNAKNTLYLQMSSLRAEDTAVYYCYARDFENEYWGQGTLVTVKPDKTHTCPPCPAPGGPSVFLFPPKPKDTLMISRTPEVTCVVVDVSHEDPEVKFNWYVDGVEVHNAKTKPREEQYNSTYRVVSVLTVLHQDWLNGKEYKCKVSNKALPAPIEKTISKAKGQPREPQVYTLPPCRDELTKNQVSLWCLVKGFYPSDIAVEWESNGQPENNYKTTPPVLDSDGSFFLYSKLTVDKSRWQQGNVFSCSVMHEALHNHYTQKSLSLSPTGGGGGSGGGGGSGGGGGSEVQLVESGGGLVQPGGSLRLSCAASGFTFNTYAMNWVRQAPGKCLEWVARIRSKYNNYATYYADSVKGRFTISRDDAKNTLYLQMSSLRAEDTAVYYCVRHGNFGNSYVSWFAYWGQGTLVTVKPEVQLVESGGGEVQPGGSLRLSCAASGSIFSINAMGWYRQAPGKQRELVAGFTGDTNTIYAESVKGRFTISRDNAKNTVYLQMSSLRAEDTAVYYCAADVQLFSRDYEFYWGQGTLVTVKP
chain 2: B1 chain 2
Regarding B2, the values for the Kd in assay [1] and in assay [2] were 0.397 nM and above 200 nM, respectively.

B3: cx5352 (bispecific antibody)
chain 1: EVQLVESGGGEVQPGGSLRLSCAASGSIFSINAMGWYRQAPGKQRELVAGFTGDTNTIYAESVKGRFTISRDNAKNTVYLQMSSLRAEDTAVYYCAADVQLFSRDYEFYWGQGTLVTVKPDKTHTCPPCPAPGGPSVFLFPPKPKDTLMISRTPEVTCVVVDVSHEDPEVKFNWYVDGVEVHNAKTKPREEQYNSTYRVVSVLTVLHQDWLNGKEYKCKVSNKALPAPIEKTISKAKGQPREPQVYTLPPCRDELTKNQVSLWCLVKGFYPSDIAVEWESNGQPENNYKTTPPVLDSDGSFFLYSKLTVDKSRWQQGNVFSCSVMHEALHNHYTQKSLSLSPTGGGGGSGGGGGSGGGGGSEVQLVESGGGLVQPGGSLRLSCAASGFTFNTYAMNWVRQAPGKCLEWVARIRSKYNNYATYYADSVKGRFTISRDDAKNTLYLQMSSLRAEDTAVYYCVRHGNFGNSYVSWFAYWGQGTLVTVKPEVQLVESGGGEVQPGGSLRLSCGPSEIITSDKSMGWVRQAPGKQRNLVAGISNVGSTNYAQSVKGRFTISRDNAKNTVYLQMSSLRAEDTAVYYCYARDFENEYWGQGTLVTVKP
chain 2: DKTHTCPPCPAPGGPSVFLFPPKPKDTLMISRTPEVTCVVVDVSHEDPEVKFNWYVDGVEVHNAKTKPREEQYNSTYRVVSVLTVLHQDWLNGKEYKCKVSNKALPAPIEKTISKAKGQPREPQVCTLPPSRDELTKNQVSLSCAVKGFYPSDIAVEWESNGQPENNYKTTPPVLDSDGSFFLVSKLTVDKSRWQQGNVFSCSVMHEALHNRYTQKSLSLSPTGGGGGSGGGGGSGGGGGSQAVVTQEPSLTVSPGGTVTLTCGSSTGAVTTSNYANWVQQKPGQAFRGLIGGTNKRAPGVPARFSGSLLGGKAALTISGAQPEDEADYYCALWYSNHWVFGCGTKLEIKEVQLLESGGGEVQPGGSLRLSCAASGFSFSINAMGWYRQAPGKRREFVAAIESGRNTVYAESVKGRFTISRDNAKNTVYLQMSSLRAEDTAVYYCGLLKGNRVVSPSVAYWGQGTLVTVKP
As to B3, the binding result is listed as “no binding (tested: about 67 nM)” in assay [3] and “binds” in assay [4].

B4: cx4720 (bispecific antibody)
chain 1: B1 chain 1
chain 2: B3 chain 2
notes: also carries a 41BB sdAb
Take B4: the figures for the Kd in assay [1] and in assay [2] were 0.115 nM and above 200 nM, respectively.

B5: cx4895 (bispecific antibody)
chain 1: B1 chain 1
chain 2: B3 chain 2
notes: as printed the same parts as cx4720
B5: the Kd in assay [1] was 0.065 nM; in assay [2], above 200 nM.
